Sequences and labels used below:
B1: Biotinylated human Norrin wild-type (pHL-Avitag3 construct) [modified: biotin on the C-terminal BirA recognition sequence (in vivo biotinylation); biotin on the C-terminal BirA recognition sequence (in vivo biotinylation)] (parent)
chain 1: KTDSSFIMDSDPRRCMRHHYVDSISHPLYKCSSKMVLLARCEGHCSQASRSEPLVSFSTVLKQPFRSSCHCCRPQTSKLKALRLRCSGGMRLTATYRYILSCHCEECNS
chain 2: ERRCDPIRISMCQNLGYNVTKMPNLVGHELQTDAELQLTTFTPLIQYGCSSQLQFFLCSVYVPMCTEKINIPIGPCGGMCLSVKRRCEPVLKEFGFAWPESLNCSKFPPQNDHNHMCMEGPGDEEVPLPHKTPIQPGE

The variants in this assay derive from B1. Description: SPR. The settings on record: with Frizzled4 cysteine-rich domain (Fz4CRD), Norrin mutant immobilized on CM5 chip, Fz4CRD as analyte, 1:1 Langmuir binding model.

Turning to chain 1 KTDSSFIMDSDPRRCMRHHYVDSISHPNYSCSSKMVLLARCEGHCSQASRSEPLVSFSTVLKQPFRSSCHCCRPQTSKLKALRLRCSGGMRLTATYRYILSCHCEECNS [chain 1 L28N K30S], the screen value (Surface: 325 RU (WT surface in panel A: 336 RU)) came out at 122 RU. Besides, the Kd (Surface: 325 RU) was found to be 1250 nM.
Turning to chain 1 KTDSSFIMDSDPRRCMRHHYVDSISHPLYKCSSKMVLLARCEGHCSQASRSEPLVSFSTVLKQPFRSSCHCCRPQTSKLKALRLRCSGGNRSTATYRYILSCHCEECNS [chain 1 M90N L92S], the screen value (Surface: 435 RU (WT surface in panel A: 336 RU)) stood at 78 RU. In addition, the Kd (Surface: 435 RU) was 1060 nM.

Usually Kd stands for the concentration at which binding is half-saturated.

Source of the values: paper PMC4497409.
